According to publication doi:10.1101/2023.07.20.549907, “Mechanism of outer kinetochore assembly on microtubules and its regulation by mitotic error correction” (bioRxiv, 2023):

B1: Ask1 subunit of the Dam1 complex (natural protein, S. cerevisiae, UniProt P35734 1-292, looked up)
chain: MDSASKEETLEKLDQEITVNLQKIDSNLSFCFHKITQDIIPHVATYSEICERIMDSTEWLGTMFQETGLVNLQANAAAPVGNAPVKSLVSNNVGIFPTSAEEASRQSQTDNGPNEADSAVHVNRDVHSMFNNDSIDDFHTANITSTGQILKLPDSSDEDTGSEAVPSREQTDLTGEGHGGADDEQDESTIQRQSRKRKISLLLQQQYGSSSSMVPSPIVPNKMRKQLAHEEHINNDGDNDDENSNNIESSPLKQGHHHPKGQADDNNEGPDEEESTKEVPKPGTIIHFSTNR
notes: Ask1 subunit of the S. cerevisiae Dam1 complex; Stood in the structure as part of the whole Dam1 complex; also called Ask1^B; source: as subunit of m2
B2: Dam1 subunit of the Dam1 complex (natural protein, S. cerevisiae, UniProt P53267 1-343, looked up)
chain: MSEDKAKLGTTRSATEYRLSIGSAPTSRRSSMGESSSLMKFADQEGLTSSVGEYNENTIQQLLLPKIRELSDSIITLDSNFTRLNFIHESLADLNESLGSLLYGIMSNSWCVEFSQAPHDIQDDLIAIKQLKSLEDEKNNLVMELSNMERGIKRKKDEQGENDLAKASQNKQFNQPLFPSSQVRKYRSYDNRDKRKPSKIGNNLQVENEEDYEDDTSSEASFVLNPTNIGMSKSSQGHVTKTTRLNNNTNSKLRRKSILHTIRNSIASGADLPIENDNVVNLGDLHPNNRISLGSGAARVVNGPVTKNRNSMFSGRAERKPTESRHSVAKKTEKKINTRPPFR
notes: Dam1 subunit of the S. cerevisiae Dam1 complex; Stood in the structure as part of the whole Dam1 complex; also called Dam1^Staple (residues 1-26); Dam1^C-ter; source: as subunit of m2
B3: Dad4 subunit of the Dam1 complex (natural protein, S. cerevisiae, UniProt P69851 1-72, looked up)
chain: MENPHEQVQANILSRIIGNVKRLNESVAILNQELVTINNRNKNLEIMGAICDNYHSSVQFNLEATNNKKPPL
notes: Dad4 subunit of the S. cerevisiae Dam1 complex; Stood in the structure as part of the whole Dam1 complex; also called Dad4^B; source: as subunit of m2
B4: Spc19 subunit of the Dam1 complex (natural protein, S. cerevisiae, UniProt Q03954 1-165, looked up)
chain: MTDALEQSVLALEGTVSVLKDSVESLKCANEPSTNLASTMLQTKRVFRLVPEYDVERSKLDLIEEVEPLVRTLGDKLRKSMGRMQRELDTLQQTYELNDLRLKKNISMDDDDALNSPDMGQEYEGRDADDVVMMASSTNEELEELKKLKEKKKQLENKLEILKQK
notes: Spc19 subunit of the S. cerevisiae Dam1 complex; Stood in the structure as part of the whole Dam1 complex; source: as subunit of m2
B5: Spc34 subunit of the Dam1 complex (natural protein, S. cerevisiae, UniProt P36131 1-295, looked up)
chain: MGESLDRCIDDINRAVDSMSTLYFKPPGIFHNAILQGASNKASIRKDITRLIKDCNHDEAYLLFKVNPEKQSVSRRDGKEGVFDYVIKRDTDMKRNRRLGRPGEKPIIHVPKEVYLNKDRLDLNNKRRRTATTSGGGLNGFIFDTDLIGSSVISNSSSGTFKALSAVFKDDPQIQRLLYALENGSVLMEEESNNQRRKTIFVEDFPTDLILKVMAEVTDLWPLTEFKQDYDQLYHNYEQLSSKLRFIKKEVLLQDDRLKTMSQYHPSSSHDVAKIIRKEKDEIRRLEMEIANLQE
notes: Spc34 subunit of the S. cerevisiae Dam1 complex; Stood in the structure as part of the whole Dam1 complex; source: as subunit of m2
B6: Dad1 subunit of the Dam1 complex (natural protein, S. cerevisiae, UniProt Q12248 1-94, looked up)
chain: MMASTSNDEEKLISTTDKYFIEQRNIVLQEINETMNSILNGLNGLNISLESSIAVGREFQSVSDLWKTLYDGLESLSDEAPIDEQPTLSQSKTK
notes: Dad1 subunit of the S. cerevisiae Dam1 complex; Stood in the structure as part of the whole Dam1 complex; also called Dad1^A; source: as subunit of m2

What was measured:
Assay in all cases: cryo-EM structure; complexes assembled on cryo-EM grids by step-wise addition of taxol-stabilized microtubule filaments, Ndc80c and Dam1c; sub-boxing, signal subtraction and symmetry expansion for the separate reconstructions
Conditions in all cases: both partners purified
[1] = target: B2
[2] = target: T1, Ndc80 subunit of the Ndc80 complex (S. cerevisiae, UniProt P40460 1-691)
T1 construct: Ndc80 subunit of the budding yeast Ndc80 complex; Stood in the structure as part of the Ndc80 complex; also called Ndc80^CH; Ndc80^CC; source: as subunit of m1

[3] = target: T2, Nuf2 subunit of the Ndc80 complex (S. cerevisiae, UniProt P33895 1-451)
T2 construct: Nuf2 subunit of the budding yeast Ndc80 complex; Stood in the structure as part of the Ndc80 complex; also called Nuf2^CH; Nuf2^CC; source: as subunit of m1

[4] = target: B5
[5] = target: T3, Ndc80 complex (Ndc80, Nuf2, Spc24, Spc25), budding yeast (S. cerevisiae, UniProt P40460 1-691; P33895 1-451; Q04477 1-213; P40014 1-221)
T3 construct: Ndc80 subunit of the budding yeast Ndc80 complex; Nuf2 subunit of the budding yeast Ndc80 complex; Spc24 subunit of the budding yeast Ndc80 complex; Spc25 subunit of the budding yeast Ndc80 complex; Complex used for cryo-EM; Spc24-Spc25 gave no cryo-EM density; copies: + + +
T3 sequence (P40460 whole entry, chain 1 of 4): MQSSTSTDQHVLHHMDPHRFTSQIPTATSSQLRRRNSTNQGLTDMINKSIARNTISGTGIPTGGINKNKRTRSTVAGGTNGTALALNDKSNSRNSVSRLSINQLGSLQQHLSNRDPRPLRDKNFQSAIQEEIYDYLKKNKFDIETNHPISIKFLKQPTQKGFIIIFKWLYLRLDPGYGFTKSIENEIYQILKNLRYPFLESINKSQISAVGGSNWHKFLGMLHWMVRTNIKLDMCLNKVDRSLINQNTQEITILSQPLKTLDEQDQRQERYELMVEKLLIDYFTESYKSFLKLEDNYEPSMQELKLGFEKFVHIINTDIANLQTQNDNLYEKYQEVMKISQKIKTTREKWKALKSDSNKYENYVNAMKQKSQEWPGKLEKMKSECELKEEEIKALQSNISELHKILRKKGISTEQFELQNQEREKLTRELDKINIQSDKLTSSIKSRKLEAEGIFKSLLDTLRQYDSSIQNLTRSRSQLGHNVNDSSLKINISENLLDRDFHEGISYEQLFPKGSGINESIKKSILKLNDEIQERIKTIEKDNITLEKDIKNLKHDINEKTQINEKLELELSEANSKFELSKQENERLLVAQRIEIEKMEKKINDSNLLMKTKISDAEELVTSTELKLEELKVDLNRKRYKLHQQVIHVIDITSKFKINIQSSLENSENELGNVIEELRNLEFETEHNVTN
T3 sequence (P33895 whole entry, chain 2 of 4): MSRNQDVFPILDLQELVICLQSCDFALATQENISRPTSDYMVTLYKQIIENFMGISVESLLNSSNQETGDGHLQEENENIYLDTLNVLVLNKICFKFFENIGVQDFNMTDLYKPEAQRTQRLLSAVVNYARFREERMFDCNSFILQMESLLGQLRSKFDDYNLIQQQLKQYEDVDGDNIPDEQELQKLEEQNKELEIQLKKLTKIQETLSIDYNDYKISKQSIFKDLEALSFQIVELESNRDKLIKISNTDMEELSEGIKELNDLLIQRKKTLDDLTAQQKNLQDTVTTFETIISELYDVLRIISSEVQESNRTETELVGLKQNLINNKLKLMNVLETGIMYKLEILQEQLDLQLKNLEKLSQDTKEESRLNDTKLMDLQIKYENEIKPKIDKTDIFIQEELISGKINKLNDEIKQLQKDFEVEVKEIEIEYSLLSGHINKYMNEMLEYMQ
T3 sequence (Q04477 whole entry, chain 3 of 4): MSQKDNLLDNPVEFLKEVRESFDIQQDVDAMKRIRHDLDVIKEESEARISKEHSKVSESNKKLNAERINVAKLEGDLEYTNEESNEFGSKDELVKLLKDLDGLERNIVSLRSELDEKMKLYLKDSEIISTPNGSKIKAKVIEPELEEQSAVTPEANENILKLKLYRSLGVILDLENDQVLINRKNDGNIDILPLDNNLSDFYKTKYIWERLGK
T3 sequence (P40014 whole entry, chain 4 of 4): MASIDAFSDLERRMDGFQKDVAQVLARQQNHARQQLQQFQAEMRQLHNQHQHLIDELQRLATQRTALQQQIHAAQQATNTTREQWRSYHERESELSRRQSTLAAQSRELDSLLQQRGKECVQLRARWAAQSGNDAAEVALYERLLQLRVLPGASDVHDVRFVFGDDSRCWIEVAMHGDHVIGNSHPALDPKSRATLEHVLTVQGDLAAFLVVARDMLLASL

T1 sequence (P40460 whole entry, one chain of several): as the sequence (P40460 whole entry, chain 1 of 4) above
T2 sequence (P33895 whole entry, one chain of several): as the sequence (P33895 whole entry, chain 2 of 4) above

Row | binding result [1] | binding result [2] | Binder | also measured
1 | binds |  | B1 | 
2 |  | binds | B2 | binding result [3]: binds
3 | binds |  | B3 | 
4 |  | binds | B4 | binding result [4]: binds
5 |  |  | B5 | binding result [5]: binds
6 | binds |  | B6 | 
